{"source": "patent US20170145104A1", "about": "(Bristol-Myers Squibb, published 2017)", "binders": {"B1": {"name": "3C3 (antibody, human IgG1, kappa, V domains shown)", "VH": "QVQLQQWGAGLLKPSETLSLTCAVYGGSFSGYYWTWIRQPPGKGLEWIGKINHSGNTNYNPSLKSRVTISVDTSKNQFSLKLSSVTAADTAVYYCARLGAFDAFDIWGQGTMVTVSS", "VL": "DIQMTQSPSSLSASVGDRVTITCRASQGISSWLAWYQQKPEKAPKSLIYAASSLQSGVPSRFSGSGSGTDFTLTISSLQPEDFATYYCQQYNSYPYTFGQGTKLEIKR", "notes": "Hybridoma-derived human antibody; also called GITR.3; 3C3-1"}, "B2": {"name": "19D3 (antibody, human IgG2, kappa, V domains shown)", "VH": "QVQLVESGGGVVQPGRSLRLSCAASGFTFSSYGFHWVRQAPGKGLEWVAVIWYAGSNKFYADSVKGRFTISRDNSKNTLYLQMNSLRAEDTAVYYCARGGQLDYYYYYVMDVWGQGTTVTVSS", "VL": "B1 VL", "notes": "Hybridoma-derived human antibody; also called 19D3-IgG2"}, "B3": {"name": "18E10 (antibody, human IgG2, kappa, V domains shown)", "VH": "B2 VH with F34M, F59Y, Q101R, L102I, D103A, Y104V, Y105A, Y106F, V109S", "VL": "B1 VL", "notes": "Hybridoma-derived human antibody; also called 18E10-IgG2"}, "B4": {"name": "28F3 VH CDR3 mutant M98S, D106E, M111F (antibody, V domains shown)", "VH": "QVQLVESGGGVVQPGRSLRLSCAASGFTFSSYGMHWVRQAPGKGLEWVAVIWYEGSNKYYADSVKGRFTISRDNSKNTLYLQMNSLRAEDTAVYYCARGGSSVRGEYYYGFDVWGQGTTVTVSS", "VL": "AIQLTQSPSSLSASVGDRVTITCRASQGISSALAWYQQKPGKAPKLLIYDASSLESGVPSRFSGSGSGTDFTLTISSLQPEDFATYYCQQFNSYPYTFGQGTKLEIK", "notes": "also called E4"}, "B5": {"name": "28F3 VH CDR3 mutant M98Y, D106E, M111F (antibody, V domains shown)", "VH": "B4 VH with S102Y", "VL": "B4 VL", "notes": "also called G4"}, "B6": {"name": "28F3 (antibody, human IgG2, kappa)", "heavy": "QVQLVESGGGVVQPGRSLRLSCAASGFTFSSYGMHWVRQAPGKGLEWVAVIWYEGSNKYYADSVKGRFTISRDNSKNTLYLQMNSLRAEDTAVYYCARGGSMVRGDYYYGMDVWGQGTTVTVSSASTKGPSVFPLAPCSRSTSESTAALGCLVKDYFPEPVTVSWNSGALTSGVHTFPAVLQSSGLYSLSSVVTVPSSNFGTQTYTCNVDHKPSNTKVDKTVERKCCVECPPCPAPPVAGPSVFLFPPKPKDTLMISRTPEVTCVVVDVSHEDPEVQFNWYVDGVEVHNAKTKPREEQFNSTFRVVSVLTVVHQDWLNGKEYKCKVSNKGLPAPIEKTISKTKGQPREPQVYTLPPSREEMTKNQVSLTCLVKGFYPSDIAVEWESNGQPENNYKTTPPMLDSDGSFFLYSKLTVDKSRWQQGNVFSCSVMHEALHNHYTQKSLSLSPGK", "light": "not shown", "notes": "Hybridoma-derived human antibody, IgG2 constant region; also called 13H2; 28F3 (IgG2)"}}, "key": {"[1]": {"target": "T1, cynomolgus GITR on activated cynomolgus T cells (cynomolgus, UniProt Q9Y5U5 26-241 (human entry))", "T1 construct": "also called cyno GITR", "T1 chain": "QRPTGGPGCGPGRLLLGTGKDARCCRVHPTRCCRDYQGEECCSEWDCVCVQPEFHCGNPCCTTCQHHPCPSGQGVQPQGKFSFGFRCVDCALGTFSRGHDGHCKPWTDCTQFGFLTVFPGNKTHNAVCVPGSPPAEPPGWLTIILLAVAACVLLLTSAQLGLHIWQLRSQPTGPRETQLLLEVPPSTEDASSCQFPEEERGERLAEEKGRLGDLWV", "assay": "FACS on activated cynomolgus T cells, PE anti-human IgG. The EC50 table prints no unit, so nM is taken from the axis 'Concentration (nM)'. The 3C3 curve itself is flat, see non_binding.", "description": "(§1) Peripheral Blood Mononuclear Cells (PBMCs) isolated from human or cynomolgus monkey were activated with plate-coated anti-CD3 antibody (Clone: UCHT1 for human T cell activation; Clone: SP34 for cynomolgus T cell activation; both from BD Biosciences) and soluble anti-CD28 antibody (Clone:CD28.2 for both human and cynomolgus monkey, BD Biosciences) for 4 days (human)/or 5 days (cynomolgus monkey). The cells were tested for GITR mAb binding in a fluorescence-activated cell sorting (FACS)-based assay using a phycoerythrin (PE)-conjugated anti-human IgG antibody (Jackson ImmunoResearch). The samples were analyzed on a BD FACS Canto Flow Cytometer."}, "[2]": {"target": "T2, human GITR, membrane bound (on activated human T cells and on 3A9-hGITR cells) (human, UniProt Q9Y5U5 26-241)", "T2 construct": "whole, on cells; the cell is named under assay; also called huGITR; TNFRSF18", "T2 sequence (looked up)": "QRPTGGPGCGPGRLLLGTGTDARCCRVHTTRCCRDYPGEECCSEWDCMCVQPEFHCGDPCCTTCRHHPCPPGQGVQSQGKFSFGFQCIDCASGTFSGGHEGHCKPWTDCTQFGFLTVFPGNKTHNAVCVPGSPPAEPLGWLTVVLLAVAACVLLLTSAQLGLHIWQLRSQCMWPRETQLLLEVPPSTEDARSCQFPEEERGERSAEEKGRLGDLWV", "assay": "FACS, activated human T cells (anti-CD3/anti-CD28), PE anti-human IgG", "description": "as §1"}, "[3]": {"target": "T2, human GITR, membrane bound (on …)", "assay": "FACS blocking assay on GITR-3A9 cells: antibody titrated first, then GITR-L, bound GITR-L read as GMFI (PE). The table prints no unit, so ug/mL is taken from the axis 'Conc (ug/mL)'."}, "[4]": {"target": "T2, human GITR, membrane bound (on …)", "assay": "FACS blocking assay on GITR-3A9 cells with GITR-L, plotted as % inhibition. The table prints no unit, so ug/mL is taken from the axis 'Conc (ug/mL)'."}, "[5]": {"target": "T1, cynomolgus GITR on activated cynomolgus …", "assay": "FACS, activated cynomolgus T cells (anti-CD3/anti-CD28), PE anti-human IgG", "description": "as §1"}, "[6]": {"target": "T2, human GITR, membrane bound (on …)", "assay": "FACS binding to 3A9-hGITR transfectant, Geo-MFI (PE); EC50 table beside the curves; unit from the axis; the lowest curve (small diamonds) reaches only about 40 Geo-MFI at the top concentration"}, "[7]": {"target": "T2, human GITR, membrane bound (on …)", "assay": "FACS binding to 3A9-hGITR transfectant, Geo-MFI (PE); EC50 table beside the curves; unit from the axis"}, "[8]": {"target": "T3, non-glycosylated N-terminal human GITR peptide consisting of SEQ ID NO: 215 (human)", "T3 construct": "Made by proteolysis of native GITR-mouse Fc and also by organic synthesis; also called N-terminal peptide without O-linked glycosylation", "T3 peptide": "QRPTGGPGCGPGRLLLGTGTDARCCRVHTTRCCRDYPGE", "assay": "capture on 28F3 coated beads, LC-MS", "description": "The experiment was conducted as follows: Human GITR peptide fragments were generated by incubation of human GITR with Endoproteinase Arg-C, Endoproteinase Lys-C, Trypsin, Endoproteinase Glu-C or Endoproteinase Asp-N at a 2% w/w ratio at 37° C. in PBS for five hours without the presence of denaturing reagents. The peptide mixture was then incubated with anti-GITR Ab beads in PBS at room temperature for two hours. Some samples were subjected to in situ secondary cleavage by incubation with a different enzyme in PBS for an hour. Unbound peptides were removed by washing the anti-GITR Ab beads twice with PBS."}, "[9]": {"target": "T4, mouse GITR (mouse, UniProt O35714 20-228)", "T4 construct": "whole, on cells; also called muGITR", "T4 sequence (looked up)": "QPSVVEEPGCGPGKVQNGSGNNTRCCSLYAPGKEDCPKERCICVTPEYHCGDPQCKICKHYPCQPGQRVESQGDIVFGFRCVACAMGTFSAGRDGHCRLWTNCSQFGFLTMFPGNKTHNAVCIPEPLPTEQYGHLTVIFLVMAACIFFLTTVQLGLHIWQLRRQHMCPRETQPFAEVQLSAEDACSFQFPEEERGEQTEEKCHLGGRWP", "assay": "stated in the Treg suppression assay with wildtype and huGITR knock-in mouse T cells"}}, "note": "Where a chain is given by its changes, count along the chain named. Names and notes keep the numbering of the source.", "data": [{"binder": "B1", "values": [{"measurement": "EC50", "setting": "[1]", "result": 0.142, "unit": "µM"}, {"measurement": "EC50", "setting": "[2]", "result": 0.0492, "unit": "nM"}, {"measurement": "EC50", "setting": "[3]", "result": 0.0693, "unit": "mg/L"}, {"measurement": "EC50", "setting": "[4]", "result": 0.0693, "unit": "mg/L"}]}, {"binder": "B2", "values": [{"measurement": "EC50", "setting": "[2]", "result": 0.363, "unit": "nM"}, {"measurement": "EC50", "setting": "[3]", "result": 0.755, "unit": "mg/L"}, {"measurement": "EC50", "setting": "[4]", "result": 0.755, "unit": "mg/L"}]}, {"binder": "B3", "values": [{"measurement": "EC50", "setting": "[2]", "result": 0.146, "unit": "nM"}, {"measurement": "EC50", "setting": "[5]", "result": 0.000913, "unit": "µM"}]}, {"binder": "B4", "values": [{"measurement": "EC50", "setting": "[6]", "result": "~38600", "unit": "µM"}]}, {"binder": "B5", "values": [{"measurement": "EC50", "setting": "[7]", "result": 0.045, "unit": "µM"}]}, {"binder": "B6", "values": [{"measurement": "EC50", "setting": "[2]", "result": 0.192, "unit": "nM"}, {"measurement": "EC50", "setting": "[5]", "result": 0.00104, "unit": "µM"}, {"measurement": "EC50", "setting": "[3]", "result": 0.278, "unit": "mg/L"}, {"measurement": "binding result", "setting": "[8]", "result": "binds"}, {"measurement": "EC50", "setting": "[4]", "result": 0.278, "unit": "mg/L"}, {"measurement": "binding result", "setting": "[9]", "result": "no binding"}]}]}
